From article PMC5740215, “Functional characterization of a novel somatic oncogenic mutation of PIK3CB” (Signal Transduction and Targeted Therapy, 2017)

B1: p110β (Homo sapiens) (protein)
chain: MCFSFIMPPAMADILDIWAVDSQIASDGSIPVDFLLPTGIYIQLEVPREATISYIKQMLWKQVHNYPMFNLLMDIDSYMFACVNQTAVYEELEDETRRLCDVRPFLPVLKLVTRSCDPGEKLDSKIGVLIGKGLHEFDSLKDPEVNEFRRKMRKFSEEKILSLVGLSWMDWLKQTYPPEHEPSIPENLEDKLYGGKLIVAVHFENCQDVFSFQVSPNMNPIKVNELAIQKRLTIHGKEDEVSPYDYVLQVSGRVEYVFGDHPLIQFQYIRNCVMNRALPHFILVECCKIKKMYEQEMIAIEAAINRNSSNLPLPLPPKKTRIISHVWENNNPFQIVLVKGNKLNTEETVKVHVRAGLFHGTELLCKTIVSSEVSGKNDHIWNEPLEFDINICDLPRMARLCFAVYAVLDKVKTKKSTKTINPSKYQTIRKAGKVHYPVAWVNTMVFDFKGQLRTGDIILHSWSSFPDELEEMLNPMGTVQTNPYTENATALHVKFPENKKQPYYYPPFDKIIEKAAEIASSDSANVSSRGGKKFLPVLKEILDRDPLSQLCENEMDLIWTLRQDCREIFPQSLPKLLLSIKWNKLEDVAQLQALLQIWPKLPPREALELLDFNYPDQYVREYAVGCLRQMSDEELSQYLLQLVQVLKYEPFLDCALSRFLLERALGNRRIGQFLFWHLRSEVHIPAVSVQFGVILEAYCRGSVGHMKVLSKQVEALNKLKTLNSLIKLNAVKLNRAKGKEAMHTCLKQSAYREALSDLQSPLNPCVILSELYVEKCKYMDSKMKPLWLVYNNKVFGEDSVGVIFKNGDDLRQDMLTLQMLRLMDLLWKEAGLDLRMLPYGCLATGDRSGLIEVVSTSETIADIQLNSSNVAAAAAFNKDALLNWLKEYNSGDDLDRAIEEFTLSCAGYCVASYVLGIGDRHSDNIMVKKTGQLFHIDFGHILGNFKSKFGIKRERVPFILTYDFIHVIQQGKTGNTEKFGRFRQCCEDAYLILRRHGNLFITLFALMLTAGLPELTSVKDIQYLKDSLALGKSEEEALKQFKQKFDEALRESWTTKVNWMAHTVRKDYRS
notes: GST-His6-p110β+myc-p85α; with p85α (PIK3R1)
B2: p110β^E1051K (Homo sapiens; E1051K) (protein)
chain: MCFSFIMPPAMADILDIWAVDSQIASDGSIPVDFLLPTGIYIQLEVPREATISYIKQMLWKQVHNYPMFNLLMDIDSYMFACVNQTAVYEELEDETRRLCDVRPFLPVLKLVTRSCDPGEKLDSKIGVLIGKGLHEFDSLKDPEVNEFRRKMRKFSEEKILSLVGLSWMDWLKQTYPPEHEPSIPENLEDKLYGGKLIVAVHFENCQDVFSFQVSPNMNPIKVNELAIQKRLTIHGKEDEVSPYDYVLQVSGRVEYVFGDHPLIQFQYIRNCVMNRALPHFILVECCKIKKMYEQEMIAIEAAINRNSSNLPLPLPPKKTRIISHVWENNNPFQIVLVKGNKLNTEETVKVHVRAGLFHGTELLCKTIVSSEVSGKNDHIWNEPLEFDINICDLPRMARLCFAVYAVLDKVKTKKSTKTINPSKYQTIRKAGKVHYPVAWVNTMVFDFKGQLRTGDIILHSWSSFPDELEEMLNPMGTVQTNPYTENATALHVKFPENKKQPYYYPPFDKIIEKAAEIASSDSANVSSRGGKKFLPVLKEILDRDPLSQLCENEMDLIWTLRQDCREIFPQSLPKLLLSIKWNKLEDVAQLQALLQIWPKLPPREALELLDFNYPDQYVREYAVGCLRQMSDEELSQYLLQLVQVLKYEPFLDCALSRFLLERALGNRRIGQFLFWHLRSEVHIPAVSVQFGVILEAYCRGSVGHMKVLSKQVEALNKLKTLNSLIKLNAVKLNRAKGKEAMHTCLKQSAYREALSDLQSPLNPCVILSELYVEKCKYMDSKMKPLWLVYNNKVFGEDSVGVIFKNGDDLRQDMLTLQMLRLMDLLWKEAGLDLRMLPYGCLATGDRSGLIEVVSTSETIADIQLNSSNVAAAAAFNKDALLNWLKEYNSGDDLDRAIEEFTLSCAGYCVASYVLGIGDRHSDNIMVKKTGQLFHIDFGHILGNFKSKFGIKRERVPFILTYDFIHVIQQGKTGNTEKFGRFRQCCEDAYLILRRHGNLFITLFALMLTAGLPELTSVKDIQYLKDSLALGKSEEEALKQFKQKFDEALRKSWTTKVNWMAHTVRKDYRS
notes: as for B1

Substrate: Nc1ncnc2c1ncn2[C@@H]1O[C@H](COP(=O)(O)OP(=O)(O)OP(=O)(O)O)[C@@H](O)[C@H]1O
Assay: Km [ATP] by ADP-Glo lipid kinase assay with PIP2:PS substrate
Type: biochemical, Homo sapiens
Conditions: MgCl2

| Protein | Km [µM] | Vmax [µmol/min/mg] |
| --- | --- | --- |
| B1 | 507.5 ± 66.3 | 1.13 |
| B2 | 314.3 ± 36.8 | 1.4 |
